{"source": "the nanobody polyreactivity screen of Harvey et al. (2022)"}
{"assay": "yeast display, Sf9 membrane polyspecificity reagent, FACS + sequencing; frameworks hold sequencing errors", "method_in_brief": "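Galactose induction of a Saccharomyces cerevisiae BJ5465 synthetic nanobody display library ran 36–48 hours. The cells were then stained for 1 hour at 4 °C with 10% biotinylated, detergent-solubilized Sf9 membrane reagent, pulled down on streptavidin microbeads and FACS-sorted into low and high (top ~1%) gates on expression and reagent-binding fluorescence. Labels for polyreactivity follow the gate of origin.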"}
{"sequence": "QVQLVESGGGLVQAGGSLRLSCAASGSTFDVNAMGWYRQAPGKERELVAAISWNSGSTYYADSVKGRFTISRDNAKNTVYLQMNSLKPEDTAVYYCAATYGTGRRSKYGYWGQGTQVTVSS", "polyreactivity (PSR sort gate)": "high polyreactivity"}
{"sequence": "QVQLVESGGGLVQAGGSLRLSCAASGSTFDVYAMGGYRQAPGKERELVAVISSSDGGITYYADSVKGRFTISRDNAKNTVYLQMNSLKPEDTAVYYCNAESFIWLPQYSDYDYWGQGTQVTVSS", "polyreactivity (PSR sort gate)": "high polyreactivity"}
{"sequence": "QVQLVESGGGLVQAGGSLRLSCAASGSTFDVYAMGWYRQAPGKERELVAAITQSGGSTYYADSVKGRFTISRDNAKNTVYLQMNSLKTEDTAVYYCAAREWRSFDYWGQGTQVTVSS", "polyreactivity (PSR sort gate)": "low polyreactivity"}
{"sequence": "QVQLVESGGGLVQAGGSLRLSCAASGSTFDVYAMGWYRQAPGKERELVAAITSGGTTNYADSVKGRFTISRDNAKNTVYLQMNSLKPEDTAVYYCAKDSRNVYWDYGYWGQGTQVTVSS", "polyreactivity (PSR sort gate)": "low polyreactivity"}
{"sequence": "QVQLVESGGGLVQAGGSLRLSCAASGSTFDWYTMGWYRQAPGKERELVAAISSGGRTYYADSVKGRFTISRDNAKNTVYLQMNSLKPEDTAVYYCAVAWRVGITKYGYWGQGTQVTVSS", "polyreactivity (PSR sort gate)": "high polyreactivity"}
{"sequence": "QVQLVESGGGLVQAGGSLRLSCAASGSTFDWYVMGWYRKAPGKERELVAAINQGSGSTYYADSVKGRFTISRDNAKNTVYLQMNSLKPEDTAVYYCAADRYGAGYLYWPYDYWGQGTQVTVSS", "polyreactivity (PSR sort gate)": "low polyreactivity"}
{"sequence": "QVQLVESGGGLVQAGGSLRLSCAASGSTFDYNAMGWYRQAPGKEMELVAAISRGGNTDYADSVKGRFTISRDNAKNTVYLQMNSLKPEDSAVYYCDADALLEWFDVAYFAYEYWGQGTQVTVSS", "polyreactivity (PSR sort gate)": "low polyreactivity"}
{"sequence": "QVQLVESGGGLVQAGGSLRLSCAASGSTFDYNAMGWYRQAPGKERELVAAINSGASTYYADSVKGRFTISRDNAKNTVYLQMNSLKPEDTAVYYCAKDYPYIGDYWGQGTQVTVSS", "polyreactivity (PSR sort gate)": "low polyreactivity"}
{"sequence": "QVQLVESGGGLVQAGGSLRLSCAASGSTFDYNAMGWYRQAPGKERELVAAIRWSGDTTYYADSVKGRFTISRDNAKNTVYLQRNSLKPEDTAVYYCANVPIYRYGVWAMNYWGQGTQVTVSS", "polyreactivity (PSR sort gate)": "high polyreactivity"}
{"sequence": "QVQLVESGGGLVQAGGSLRLSCAASGSTFDYNAMGWYRQAPGKERELVAAISRGGNTYYADSVKGRFTISRDNAKNTVYLQMNSLKPEDTAVYYCAKDSYGSYRFVRKRQKAYGYWGQGTQVTVSS", "polyreactivity (PSR sort gate)": "low polyreactivity"}
{"sequence": "QVQLVESGGGLVQAGGSLRLSCAASGSTFDYYAMGRYRQAPGKERELVAAITTGGRTYYADSVKGRFTISRDNAKNTVYLQMNSLKPEDTAVYYCRERDYWGQGTQVTVSS", "polyreactivity (PSR sort gate)": "low polyreactivity"}
{"sequence": "QVQLVESGGGLVQAGGSLRLSCAASGSTFDYYAMGWYRPAPGKERELVAGINRDDGNTYYADSVKGRFTISRDNAKNTVYLQMNSLKPEDTAVYYCAADSSWQGMDYSGQGTQVTVSS", "polyreactivity (PSR sort gate)": "low polyreactivity"}
{"sequence": "QVQLVESGGGLVQAGGSLRLSCAASGSTFDYYAMGWYRQAPGKERELVAAISRTGGRTYYADSVKGRFTISRDNAKNTVYLQMNSLKPEDTAVYYCNAVTPIGGGDYDYWGEGTQVTVSS", "polyreactivity (PSR sort gate)": "low polyreactivity"}
{"sequence": "QVQLVESGGGLVQAGGSLRLSCAASGSTFDYYAMGWYRQTPGKERELVAAISWSGGSTYYADSVKGRFTISRDNAKNTVYLQMNSLKPEDTAVYYCAAATNWGGEYWGQGTQVTVSS", "polyreactivity (PSR sort gate)": "high polyreactivity"}
{"sequence": "QVQLVESGGGLVQAGGSLRLSCAASGSTFDYYDMGWYRQAPGKERELVATITSGGSTNYADSVKGRFTISRDNAKNNVYLQMNILKTEDTAVFYCASDIGGDGEGYDYWGQGTQVTVSS", "polyreactivity (PSR sort gate)": "low polyreactivity"}
{"sequence": "QVQLVESGGGLVQAGGSLRLSCAASGSTFDYYDMGWYRQSPGKERELVAAISSGGDSTYYADSVKGRFTISRDNAKNTVYLQMNSLKPEDTAVYNCAAAVYYGQSVWYYYWGQGTQVTVSS", "polyreactivity (PSR sort gate)": "high polyreactivity"}
{"sequence": "QVQLVESGGGLVQAGGSLRLSCAASGSTFDYYVMGWYRQAPGKERELVAAISHNAGSTYYADSVKGRFTISRDNAKNTVYLQMNSLKPEDTAVYYCAAPDYRNGVRYPLDYWGQGTQVTVSS", "polyreactivity (PSR sort gate)": "low polyreactivity"}
{"sequence": "QVQLVESGGGLVQAGGSLRLSCAASGSTFEDYSMGWYRQAPGKERELVAAISHIGGSTYYADSVKGRFTISRDNAKNTVYLQMNSLKPDDTAVYYCAKGGFSSKFDYWGQGTQVTVSS", "polyreactivity (PSR sort gate)": "low polyreactivity"}
{"sequence": "QVQLVESGGGLVQAGGSLRLSCAASGSTFEGNAMGWYRQAPGKERELVAAISSGGRTYYADSVKGRFTISRDNAKNTVYLQMNSLKPEDTAVYYCAAYVRRGFDWGQGTQVTVSS", "polyreactivity (PSR sort gate)": "high polyreactivity"}
{"sequence": "QVQLVESGGGLVQAGGSLRLSCAASGSTFEGNVMGWDRQATGKERELVATITGSGGRTYADSVKGRFTISRDNAKNTVYLQMNSLKPEDTAVYYCYAVSTASDEYDYWGQGTQVTVSS", "polyreactivity (PSR sort gate)": "low polyreactivity"}
{"sequence": "QVQLVESGGGLVQAGGSLRLSCAASGSTFEKNAMGWYRQAPGKEREFVAAISRRGGSTYYADSVKGRFTISRDNAKNTVYLQMNSLKPEDTAVYYCAAQQLTWYSYRGDYWGQGTQVTVSS", "polyreactivity (PSR sort gate)": "high polyreactivity"}
{"sequence": "QVQLVESGGGLVQAGGSLRLSCAASGSTFEPYAMGWYRQAPGKERELVAAISSGGSTSYADSVKGRFTISRDNAKNTVYLQMNSLKPEDTAVYYCAKRWRSYRHEDYGYWGQGTQVTVSS", "polyreactivity (PSR sort gate)": "low polyreactivity"}
{"sequence": "QVQLVESGGGLVQAGGSLRLSCAASGSTFEPYVMGWYRQAPGKERELVAAITYSGGRTYYADSVKGRFTISRDNAKNTVYLQMNSLKPEDTAVYYCAKVDRSYGYSRYWFKYGYWGQGTQVTVSS", "polyreactivity (PSR sort gate)": "low polyreactivity"}
{"sequence": "QVQLVESGGGLVQAGGSLRLSCAASGSTFEQYAMGGYRQAPGKEKELDAAISGSGTRTYYADSVKGRFTISRDNAKNTVYLQMNSLKAEDTAVYYCAARFSYPAILQAYYHWGQGTQVTVSS", "polyreactivity (PSR sort gate)": "high polyreactivity"}
{"sequence": "QVQLVESGGGLVQAGGSLRLSCAASGSTFESNAMGWYRQAPGKERELVAAISRGGNTYYADSVKGRFTISRDNAKITVYLQMNSLKPEDTAVYYCNVDRGKPVPPSEYWGQGTQVTVSS", "polyreactivity (PSR sort gate)": "low polyreactivity"}
{"sequence": "QVQLVESGGGLVQAGGSLRLSCAASGSTFESNTMGWYSQAPGKERELVAAISYSGGRTYYADSVKGRFTISRDNAKNTVYLQMNSLKPEDTAVYYCAARWSVSYQYWGQGTQVTVSS", "polyreactivity (PSR sort gate)": "high polyreactivity"}
{"sequence": "QVQLVESGGGLVQAGGSLRLSCAASGSTFETNAMGWYRQAPGTERELVAAIRWSTGNTYYADSVKGRFTISRDNAKNTVYLQMNSLKPEDTAVYYCAAYKGKHYNEGYWGQGTQVTVSS", "polyreactivity (PSR sort gate)": "low polyreactivity"}
{"sequence": "QVQLVESGGGLVQAGGSLRLSCAASGSTFEYNSMGWYRQAPGKERELVGSSTNYADSVKGRFTISRDNAKNTVYLQMNSLLPEYTAVYYCAREQGVNRNHDYWGQGTQVTVSS", "polyreactivity (PSR sort gate)": "low polyreactivity"}
{"sequence": "QVQLVESGGGLVQAGGSLRLSCAASGSTFEYYAMGWYRQAPGKERELVAAISWSGGSTYYADSVKGRFTISRDNAKNTVYLQMNSLKPEDTAVYDCATDTGTSFYGINYGYDYWGQGTQVTVSS", "polyreactivity (PSR sort gate)": "low polyreactivity"}
{"sequence": "QVQLVESGGGLVQAGGSLRLSCAASGSTFFDYAMGWYRKAPGKERELVAAISRSGDTNYADSVKGRFTISRDNAKNTVYLQMKSLKPEDTAVYYCAKDWAYRRHWVGFYYWGQGTQVTVSS", "polyreactivity (PSR sort gate)": "low polyreactivity"}
{"sequence": "QVQLVESGGGLVQAGGSLRLSCAASGSTFFEYTMGWYRRAPGKEREFVADIRGRDGSTSYADSVKGRFTISRDNAKNTVYLQMNSLKPEDTAVYYCATEYFPQYQSTGWYDYWGQGTQVTVSS", "polyreactivity (PSR sort gate)": "low polyreactivity"}
{"sequence": "QVQLVESGGGLVQAGGSLRLSCAASGSTFFGYAMGRYRQAPGKERELVAAISYRGGSTYYADSVKGRFTISRDNAKNTVYLQMNSLKPEDTAVYYCAATHGPTGSYYWGQGTQVTVSS", "polyreactivity (PSR sort gate)": "high polyreactivity"}
{"sequence": "QVQLVESGGGLVQAGGSLRLSCAASGSTFFGYDMGWYRQAPGKERELVATINSGGSTYYADSVKGRFTISRDNAKNTVYLQMNSLKPEDTAVYYCAARPSYLYPYDRTGEYDYWGQGTQVTVSS", "polyreactivity (PSR sort gate)": "high polyreactivity"}
{"sequence": "QVQLVESGGGLVQAGGSLRLSCAASGSTFFHYVMGWYRQAPGKEREVVAAIRWSGGRTRYADSVKRRFTISRDNAKITVYLQMNSLIPEDTAVFYCAAYRLSKPFYKYDYWGQGTQVTVSS", "polyreactivity (PSR sort gate)": "high polyreactivity"}
{"sequence": "QVQLVESGGGLVQAGGSLRLSCAASGSTFFHYVMGWYRQAPWKERELVAAIRWSGGRTRYADSVKGRFTISRDNAKNTVYLQMNSLKPEDTAVYYCAAYRLSKPFYKYDYWGQGTQVTVSS", "polyreactivity (PSR sort gate)": "high polyreactivity"}
{"sequence": "QVQLVESGGGLVQAGGSLRLSCAASGSTFFIWNAMGWYRQAPGKERELVAGITRGGSTNYADSVKGRFTISRDNAKNTVYLQMNSLKPEDTAVYYCAADGTVVYGYDYWGQGTQVTVSS", "polyreactivity (PSR sort gate)": "low polyreactivity"}
{"sequence": "QVQLVESGGGLVQAGGSLRLSCAASGSTFFIYAMGWYRQAPGKERELVAAISGSGGTTYYADSVKGRFTISRDNAKNTVYLQMNSLKPEDTAVYYCNKDYYPGSYDYWGQGTQVTVSS", "polyreactivity (PSR sort gate)": "low polyreactivity"}
{"sequence": "QVQLVESGGGLVQAGGSLRLSCAASGSTFFLNAMGWYRQAPGKESEFVAAISYTSTSTYYADSVKGRFTISRDNAKNTVYLQMNSLKPEDTAVYYCAVDAAGWYYTVETGDYAEDYWGQGTQVTVSS", "polyreactivity (PSR sort gate)": "low polyreactivity"}
{"sequence": "QVQLVESGGGLVQAGGSLRLSCAASGSTFFLYAMGWYRQAPGKERELVAAINYIGGTYYADSVKGRFTISRDNAKNTVYLQMNSLKPEDTAVYYCAASYVGTIAGMDYWGQGTQVTVSS", "polyreactivity (PSR sort gate)": "low polyreactivity"}
{"sequence": "QVQLVESGGGLVQAGGSLRLSCAASGSTFFLYAMGWYRQAPGKERELVAVITWRGGRTYYADSVKGRFTISRDNAKNTVYLQMNSMKPEDTAVYYCAAEYYWPVKYYYWGQGTQVTVSS", "polyreactivity (PSR sort gate)": "high polyreactivity"}
{"sequence": "QVQLVESGGGLVQAGGSLRLSCAASGSTFFNYAMGWYRQAPGKERELVAAITGSGGRTYYADSVKGRFTISRDNAKNTVYLQMNSLKPEDTAVYYCAASATYDPHDYWGQGTQVTVSS", "polyreactivity (PSR sort gate)": "high polyreactivity"}
{"sequence": "QVQLVESGGGLVQAGGSLRLSCAASGSTFFPNGMGWYRQAPGKERELVAAITQDGGSTYYADSVKGRFTISRDKAKNTVYLQMNSLKPEDTAVYYCAASAGPYYEYGYWGQGTQVTVSS", "polyreactivity (PSR sort gate)": "low polyreactivity"}
{"sequence": "QVQLVESGGGLVQAGGSLRLSCAASGSTFFPYAMGWYRPAPGKERELVAAIRWSGGRTYYADSVKGRFTISRDNAKNTVYLQMNSLKPEDTAVYYCAADKYLDYDYWGQGTQVTVSS", "polyreactivity (PSR sort gate)": "high polyreactivity"}
